One block for each binder: values may come before it.
Key:
[1] = molecular target: T1, F-box protein 2 (human, UniProt Q9UK22 1-296)
T1 construct: also called FBXO2
T1 sequence: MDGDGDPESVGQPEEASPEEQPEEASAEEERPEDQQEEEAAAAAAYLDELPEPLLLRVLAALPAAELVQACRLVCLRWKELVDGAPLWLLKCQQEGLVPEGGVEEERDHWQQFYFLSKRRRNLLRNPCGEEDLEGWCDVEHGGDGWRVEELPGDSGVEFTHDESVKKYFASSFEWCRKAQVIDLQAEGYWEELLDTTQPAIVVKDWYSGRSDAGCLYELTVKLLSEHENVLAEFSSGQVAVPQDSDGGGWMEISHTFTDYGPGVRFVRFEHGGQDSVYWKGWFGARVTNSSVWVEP

[2] = molecular target: T2, tubulin gamma 1 (human, UniProt P23258 1-451)
T2 construct: also called TUBG1

[3] = molecular target: CRK like proto-oncogene, adaptor protein, transcript variant 1 (human, UniProt P46109 1-303)
[4] = molecular target: T3, Rna polymerase iii subunit g (human, UniProt O15318 1-223)
T3 construct: also called POLR3G
T3 sequence: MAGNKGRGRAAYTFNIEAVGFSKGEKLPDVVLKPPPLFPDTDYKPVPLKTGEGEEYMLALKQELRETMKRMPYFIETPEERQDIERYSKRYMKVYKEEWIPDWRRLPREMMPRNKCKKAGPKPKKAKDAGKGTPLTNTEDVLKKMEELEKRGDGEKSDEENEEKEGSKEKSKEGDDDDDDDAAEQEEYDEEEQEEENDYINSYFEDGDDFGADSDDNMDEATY

[5] = molecular target: T4, charged multivesicular body protein 4B (human, UniProt Q9H444 2-224); assay: protein array
T4 construct: on protein array; also called CHMP4B
T4 sequence: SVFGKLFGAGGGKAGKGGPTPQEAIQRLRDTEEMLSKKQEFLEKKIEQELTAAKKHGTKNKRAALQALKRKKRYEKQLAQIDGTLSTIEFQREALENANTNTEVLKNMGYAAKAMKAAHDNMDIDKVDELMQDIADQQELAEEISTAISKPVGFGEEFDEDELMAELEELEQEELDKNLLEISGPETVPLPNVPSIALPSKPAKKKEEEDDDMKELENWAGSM

[6] = molecular target: T5, endosome associated trafficking regulator 1, transcript variant 2 (human, UniProt Q96C92 59-435); assay: protein array
T5 construct: on protein array; also called SDCCAG3
T5 chain: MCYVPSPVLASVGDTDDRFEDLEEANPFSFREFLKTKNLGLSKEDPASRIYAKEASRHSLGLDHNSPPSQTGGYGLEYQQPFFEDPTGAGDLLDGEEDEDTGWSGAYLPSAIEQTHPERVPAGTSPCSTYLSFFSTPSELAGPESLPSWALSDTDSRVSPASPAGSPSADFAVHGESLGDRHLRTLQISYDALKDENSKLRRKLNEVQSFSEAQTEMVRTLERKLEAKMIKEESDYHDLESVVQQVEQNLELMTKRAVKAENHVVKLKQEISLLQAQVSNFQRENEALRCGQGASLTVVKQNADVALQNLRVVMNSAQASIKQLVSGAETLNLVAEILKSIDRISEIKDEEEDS

[7] = molecular target: T6, oxidation resistance 1, transcript variant 1 (human, UniProt Q8N573 90-874, limits assumed)
T6 construct: also called OXR1
T6 sequence: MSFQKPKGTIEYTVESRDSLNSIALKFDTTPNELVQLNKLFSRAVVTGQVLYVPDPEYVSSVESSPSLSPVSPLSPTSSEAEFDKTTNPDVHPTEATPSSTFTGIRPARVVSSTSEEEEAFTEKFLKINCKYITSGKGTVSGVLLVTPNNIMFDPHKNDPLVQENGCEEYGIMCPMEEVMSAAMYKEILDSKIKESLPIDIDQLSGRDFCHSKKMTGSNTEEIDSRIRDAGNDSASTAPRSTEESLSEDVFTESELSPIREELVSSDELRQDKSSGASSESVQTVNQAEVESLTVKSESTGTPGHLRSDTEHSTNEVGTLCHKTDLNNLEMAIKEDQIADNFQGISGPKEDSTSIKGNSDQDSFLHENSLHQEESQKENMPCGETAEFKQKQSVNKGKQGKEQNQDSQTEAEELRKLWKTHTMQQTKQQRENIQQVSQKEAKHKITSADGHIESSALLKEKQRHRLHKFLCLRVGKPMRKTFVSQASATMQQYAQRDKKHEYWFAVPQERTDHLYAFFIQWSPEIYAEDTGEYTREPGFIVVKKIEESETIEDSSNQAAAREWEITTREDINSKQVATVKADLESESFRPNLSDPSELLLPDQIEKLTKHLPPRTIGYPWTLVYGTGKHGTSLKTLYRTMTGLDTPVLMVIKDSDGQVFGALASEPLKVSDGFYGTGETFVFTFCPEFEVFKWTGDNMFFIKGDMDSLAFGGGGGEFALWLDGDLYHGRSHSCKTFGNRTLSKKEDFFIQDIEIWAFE

[8] = molecular target: T7, grancalcin, transcript variant 4 (human, UniProt P28676 1-217)
T7 construct: also called GCA
T7 sequence: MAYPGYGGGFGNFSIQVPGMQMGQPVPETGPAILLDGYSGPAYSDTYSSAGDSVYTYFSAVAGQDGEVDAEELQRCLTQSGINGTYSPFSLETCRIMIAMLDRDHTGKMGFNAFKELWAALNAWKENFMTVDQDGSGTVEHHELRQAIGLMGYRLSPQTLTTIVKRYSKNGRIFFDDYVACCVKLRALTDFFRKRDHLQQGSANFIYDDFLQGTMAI

[9] = molecular target: T8, Vezatin, adherens junctions transmembrane protein (human, UniProt Q9HBM0 56-779 at identity 0.99), limits assumed)
T8 construct: also called VEZT
T8 chain: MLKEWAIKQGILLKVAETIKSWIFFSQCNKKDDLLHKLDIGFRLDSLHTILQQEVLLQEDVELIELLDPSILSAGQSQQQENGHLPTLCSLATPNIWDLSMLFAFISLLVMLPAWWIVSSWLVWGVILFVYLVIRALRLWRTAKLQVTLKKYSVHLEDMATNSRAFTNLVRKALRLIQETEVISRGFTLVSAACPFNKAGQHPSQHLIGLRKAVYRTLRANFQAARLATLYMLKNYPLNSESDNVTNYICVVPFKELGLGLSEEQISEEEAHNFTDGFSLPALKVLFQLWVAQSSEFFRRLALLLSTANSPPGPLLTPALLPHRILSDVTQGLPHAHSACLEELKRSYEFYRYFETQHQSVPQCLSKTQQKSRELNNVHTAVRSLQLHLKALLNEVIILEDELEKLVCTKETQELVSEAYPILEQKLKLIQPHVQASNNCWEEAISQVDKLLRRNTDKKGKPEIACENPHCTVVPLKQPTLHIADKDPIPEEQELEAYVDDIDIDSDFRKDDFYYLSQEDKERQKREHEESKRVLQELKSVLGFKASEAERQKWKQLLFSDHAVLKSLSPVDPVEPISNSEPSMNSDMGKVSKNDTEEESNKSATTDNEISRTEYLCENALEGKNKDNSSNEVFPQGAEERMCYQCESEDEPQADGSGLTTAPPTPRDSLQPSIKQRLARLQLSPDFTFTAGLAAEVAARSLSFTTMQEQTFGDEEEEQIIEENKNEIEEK

[10] = molecular target: T9, DEAD-box helicase 53 (human, UniProt Q86TM3 1-631)
T9 construct: also called DDX53

[11] = molecular target: T10, nudix hydrolase 22, transcript variant 2 (human, UniProt Q9BRQ3 1-303)
T10 construct: also called NUDT22
T10 chain: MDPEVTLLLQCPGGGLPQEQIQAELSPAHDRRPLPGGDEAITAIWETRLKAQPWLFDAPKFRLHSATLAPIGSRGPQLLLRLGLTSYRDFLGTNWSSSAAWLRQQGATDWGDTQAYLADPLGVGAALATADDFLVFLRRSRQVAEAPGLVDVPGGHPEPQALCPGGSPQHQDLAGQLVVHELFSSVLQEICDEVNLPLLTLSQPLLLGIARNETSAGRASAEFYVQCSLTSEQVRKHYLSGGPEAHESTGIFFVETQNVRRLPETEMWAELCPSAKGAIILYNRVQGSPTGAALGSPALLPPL

[12] = molecular target: T11, sorting nexin 1, transcript variant 1 (human, UniProt Q13596 1-522)
T11 construct: also called SNX1
T11 sequence (Q13596 whole entry, change not shown): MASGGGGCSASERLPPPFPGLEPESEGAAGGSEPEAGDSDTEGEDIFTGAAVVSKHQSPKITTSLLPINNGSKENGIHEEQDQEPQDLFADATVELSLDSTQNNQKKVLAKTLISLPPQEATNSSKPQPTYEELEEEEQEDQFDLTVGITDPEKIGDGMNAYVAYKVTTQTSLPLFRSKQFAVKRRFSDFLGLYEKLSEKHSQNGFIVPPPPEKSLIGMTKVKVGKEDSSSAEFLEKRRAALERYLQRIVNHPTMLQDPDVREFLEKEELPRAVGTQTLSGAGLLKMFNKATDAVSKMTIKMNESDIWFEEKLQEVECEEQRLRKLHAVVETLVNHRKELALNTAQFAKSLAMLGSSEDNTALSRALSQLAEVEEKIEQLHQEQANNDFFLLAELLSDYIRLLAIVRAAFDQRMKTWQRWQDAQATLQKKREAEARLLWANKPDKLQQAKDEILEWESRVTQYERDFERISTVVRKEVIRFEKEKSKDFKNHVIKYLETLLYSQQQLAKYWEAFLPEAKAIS

T2 sequence (P23258 whole entry): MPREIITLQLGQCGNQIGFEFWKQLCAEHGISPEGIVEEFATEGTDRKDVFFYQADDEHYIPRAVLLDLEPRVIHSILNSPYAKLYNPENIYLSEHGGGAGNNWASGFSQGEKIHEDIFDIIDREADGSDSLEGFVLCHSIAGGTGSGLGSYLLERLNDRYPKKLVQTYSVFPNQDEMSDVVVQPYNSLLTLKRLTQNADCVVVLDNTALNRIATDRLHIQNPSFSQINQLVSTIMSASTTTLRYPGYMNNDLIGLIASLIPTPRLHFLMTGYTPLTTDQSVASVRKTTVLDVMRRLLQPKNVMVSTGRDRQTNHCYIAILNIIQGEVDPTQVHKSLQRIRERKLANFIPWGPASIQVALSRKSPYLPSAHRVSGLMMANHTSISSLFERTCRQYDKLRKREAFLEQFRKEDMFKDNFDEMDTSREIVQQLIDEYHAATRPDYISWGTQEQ
Sequence of CRK like proto-oncogene, adaptor protein, transcript variant 1 (P46109 whole entry, change not shown): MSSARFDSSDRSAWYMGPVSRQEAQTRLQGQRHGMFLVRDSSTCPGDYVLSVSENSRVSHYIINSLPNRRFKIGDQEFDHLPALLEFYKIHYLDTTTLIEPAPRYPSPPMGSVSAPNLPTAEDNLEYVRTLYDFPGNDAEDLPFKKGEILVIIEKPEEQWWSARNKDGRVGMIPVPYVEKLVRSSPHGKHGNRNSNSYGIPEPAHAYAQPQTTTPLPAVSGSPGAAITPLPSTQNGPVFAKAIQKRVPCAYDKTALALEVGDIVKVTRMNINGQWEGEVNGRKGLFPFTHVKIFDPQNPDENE
T9 sequence (Q86TM3 other isoform, or with tags, fused parts or gaps limits assumed): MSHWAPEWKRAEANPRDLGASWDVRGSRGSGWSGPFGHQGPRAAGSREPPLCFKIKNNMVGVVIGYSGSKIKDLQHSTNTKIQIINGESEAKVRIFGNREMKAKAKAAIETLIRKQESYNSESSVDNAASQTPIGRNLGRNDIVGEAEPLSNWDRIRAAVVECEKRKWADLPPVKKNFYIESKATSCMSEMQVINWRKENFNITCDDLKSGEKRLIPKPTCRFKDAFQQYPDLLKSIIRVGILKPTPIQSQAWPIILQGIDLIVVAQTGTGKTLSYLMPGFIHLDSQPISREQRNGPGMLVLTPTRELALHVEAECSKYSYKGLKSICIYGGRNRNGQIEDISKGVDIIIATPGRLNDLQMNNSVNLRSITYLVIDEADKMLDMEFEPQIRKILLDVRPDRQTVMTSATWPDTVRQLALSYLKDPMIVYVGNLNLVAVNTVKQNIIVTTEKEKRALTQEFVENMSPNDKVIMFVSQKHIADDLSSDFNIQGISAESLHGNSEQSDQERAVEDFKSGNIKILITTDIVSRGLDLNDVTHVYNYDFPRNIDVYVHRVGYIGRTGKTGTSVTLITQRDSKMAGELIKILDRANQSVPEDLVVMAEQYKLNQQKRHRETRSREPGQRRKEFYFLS

B2: TPAN1006 (antibody, V domains shown)
VH: QVQLVQSGAEVKKPGASVKLSCKPSGYTFSSYYIHWLRQAPGQGLEWMGIINPSGGYTSSAQKFQGRVTMTRDTSTSTIYMELSSLRAEDTAVYYCARRGEVGTMVRVFRKPFDYWGQGTLVTVSS
VL: QSVLTQPPSVSGAPGQRVTISCTGSSSNIGAQYDVHWYKVIPGTAPKLLIYGNDNRPSGVPDRFSGSKSGTSASLAITGLQSEDEADYYCQSNDISLSGSVVFGGGTKLTVLG
binding result [3]: binds

B3: TPAN1003 (antibody, V domains shown)
VH: QVQLVQSGAEVKKPGASVKISCQAFGYNFIDNAIHWVRQAPGQRPEWMGWINAGNGNTRYSQNFQGRVTITKVTSASTAYMEMSRLKSEDTAVYFCARSSKWTDWHFDYWGQGTLVTVSS
VL: EIVLTQSPGTLSLSPGETATLSCRASQSVANNYLAWHQQKPGQAPRLLIYGASKRAAGIPDRFSGSGSGTEFTLTISRLEPEDCAVYYCQEYVKSPGFAFGPGTRVDIKR
binding result [4]: binds

B5: TPRO1001 (antibody, V domains shown)
VH: EVQLVQSGAEVKKPGESLRISCKGSGYSFTSFWISWVRQMPGKGLEWMGRIDPSDSYTNYSPSFQGHVTISADKSISTAFLQWSSLKASDTAMYYCARHQQKYSPISPLDYWGQGTLVTVSS
VL: QSALTQPASVSGSPGQSITISCTGTSSDVGGYNYVSWYQQHPGKAPKLMIYDVSNRPSGVSNRFSGSKSGNTASLTISGLQAEDEADYYCSSYTSSSSLVFGGGTKVTVLG
binding result [7]: binds

B6: TPAN1001 (antibody, V domains shown)
VH: QVQLVQSGAEVKKPGSSVKVSCKASRGTFSNHAVSWVRQAPGQGLEWVGGIIPVFGPPNYAQKFRGRVTITADRSTNTAYMELNSLRSEDTAVYYCARTQWGTDVEATNPYYYFMDVWGKGTTVTVSS
VL: EIVLTQSPGTLSLSPGHRATLSCRASQDVASTYLAWYQQKPGQAPRLLIYGASSRATGIPDRFSGSGSGTDFTLTISRLEPEDFAVFYCQYYGGSPGFTFGPGTKVDFKR
binding result [8]: binds

B7: TOVA1005 (antibody, V domains shown)
VH: QITLKESGPTLVKPTQTLTLTCTFSGFSLSTNGVGVGWIRQPPGKALEWLALINWDDDKRYSPSLKSRLTITKDTSKNQVVLTMTNLDPVDTATYYCVHARDDYGDSAWSTGPVWGQGTLVTVSS
VL: DFLLTQPHSVSESPGKTVTISCTRSSGSIASNYVQWYQQRPGSSPSTVIYEDHQRPSGVPGRFSGSIDSSSNSASLTISGLKTEDEADYFCQSSDSNNHVVFGGGTKLTVLG
binding result [9]: binds
binding result [10]: binds

Next, values leading:

binding result [1]: binds
binding result [2]: binds
B1: TPAN1007 (antibody, V domains shown)
VH: PVQLVQSGAEVKKPGESLKISCQGSGYNFSRYWIGWVRQMPGKGLEWMGVVFPGDSDIRYSLSFQGHITIYADNSISTAYLQWSSLKASDTAIYYCATTSTMPMPTRGRDWFDPWGQGTLVTVSS
VL: PSVLTQPPSVSGAPGQRVTISCTGSSSNIGAGYDVHWYQQLPGTAPKLLIYANTNRPSGVPDRFSGSKSGTSASLAITGLQAEDEADYYCQSYDNSLSGGVFGGGTKLTVLG

binding result [5]: binds
binding result [6]: binds
B4: TBRE1034 (antibody, V domains shown)
VH: QVQLVESGGGLVEPGGSLRLSCAASGFTFSDYYMSWIRQAPGKRLEWISHMSSGGNRRHYADSVRGRFTISRDNAKNSLYLQMNSMRADDTAVYYCARDKRSGMTSDRRIDYWGQGTRVTVSS
VL: DIQMTQSPSSLSASVGDRITITCRASQSVGTYLSWFQQKPGKAPKLLIYAASSLQSGVPSRFSGSGSGTDFTLTISSLQPEDFATYFCQQSYSVPPWTFGQGTKVEIKR
notes: VH/VL only

binding result [11]: binds
B8: TOVA1007 (antibody, V domains shown)
VH: PVQLQESGPGLVNPSQTLSLTCTVSGGSISSGGYCWSWVRQHPGKGLEWIGCIYYIGTTYYMRSLKSRLIISIDTSKNQFSLKLTSVTAADSAVYYCARGGELLGGFGYSGMDVWGQGTTVTVSS
VL: not shown

binding result [12]: binds
B9: TPAN1004 (antibody, V domains shown)
VH: QIQLVQSGAEVKKPGASVKVSCKTSGYTFTHYGVAWVRQAPGQGPEWMGWISPYNGNIEYGQKFQGRVTMTTDTSTNTAYMELRSLRYDDTAVYYCARDLDEINSSWLDPWGQGTLIIVSP
VL: EIVLTQSPATLSLSPGERATLSCRASQSVSSNYLAWYQQKPGQAPRLLIHGASSRATGFPDRFSGSGSGTDFTLTINRLEPEDFAVYYCQQYGTSPQTFGQGTKVEIKR
